This is an account of results in patent publication US20050277581A1.

“And” between values parts separate entries of the source, which are not always exact repeats. Identical values can stand only once.

The target of assay [1] is N,N′-diacetyl-Lys-D-Ala-D-Ala (Sigma D-9904, fw 372.4). Kind of assay: ITC, 37 C, no HSA. (In general: ITC needs no label: the signal is the heat of the interaction.)
In assay [2] the target is human serum proteins. Kind of assay: cell-based or functional assay.
The target in assay [3] is mouse serum proteins. Kind of assay: cell-based or functional assay.
For assay [4], the target named is N,N′-diacetyl-Lys-D-Ala-D-Ala (Sigma D-9904, fw 372.4). Kind of assay: ITC, 25 C, 104 µM HSA present.
Assay [5] shares this target. Put plainly: ITC, 25 C, 288 µM HSA present.
Assay [6] has the same target. Kind of assay: ITC, 25 C, 430 µM HSA present.
Assay [7] shares this target. Put plainly: ITC, 25 C, 601 µM HSA present.
For assay [8] the target is unchanged. Put plainly: ITC, 37 C, 482 µM HSA present.
Assay [9] addresses bovine albumin (bovine) (UniProt P02769). Kind of assay: ITC, protein injected into dalbavancin.
Assay [10] deals with dog albumin (dog) (UniProt P49822). Kind of assay: ITC, protein injected into dalbavancin.
Assay [11] addresses human α-glycoprotein (human) (UniProt P02763). Kind of assay: ITC, protein injected into dalbavancin.
The target of assay [12] is rat albumin (rat) (UniProt P02770). Put plainly: ITC, protein injected into dalbavancin.
The target of assay [13] is human albumin (HSA; Sigma A-3782; mw 69,366) (human) (UniProt P02768). Kind of assay: calculated from ITC Ka, dalbavancin 1-500 µM.
Assay [14] addresses N,N′-diacetyl-Lys-D-Ala-D-Ala (Sigma D-9904, fw 372.4). Put plainly: ITC, 25 C, non-competitive binding model (KL).
For assay [15] the target is unchanged. Kind of assay: ITC, preliminary experiments, no serum proteins.
For assay [16] the target is unchanged. Kind of assay: ITC, 10 C, no HSA.
Assay [17] shares this target. Kind of assay: ITC, 25 C, no HSA.
For assay [18] the target is unchanged. Kind of assay: ITC, 25 C, 513 µM HSA present.

Chain of dog albumin (dog) (P49822 25-608 limits assumed): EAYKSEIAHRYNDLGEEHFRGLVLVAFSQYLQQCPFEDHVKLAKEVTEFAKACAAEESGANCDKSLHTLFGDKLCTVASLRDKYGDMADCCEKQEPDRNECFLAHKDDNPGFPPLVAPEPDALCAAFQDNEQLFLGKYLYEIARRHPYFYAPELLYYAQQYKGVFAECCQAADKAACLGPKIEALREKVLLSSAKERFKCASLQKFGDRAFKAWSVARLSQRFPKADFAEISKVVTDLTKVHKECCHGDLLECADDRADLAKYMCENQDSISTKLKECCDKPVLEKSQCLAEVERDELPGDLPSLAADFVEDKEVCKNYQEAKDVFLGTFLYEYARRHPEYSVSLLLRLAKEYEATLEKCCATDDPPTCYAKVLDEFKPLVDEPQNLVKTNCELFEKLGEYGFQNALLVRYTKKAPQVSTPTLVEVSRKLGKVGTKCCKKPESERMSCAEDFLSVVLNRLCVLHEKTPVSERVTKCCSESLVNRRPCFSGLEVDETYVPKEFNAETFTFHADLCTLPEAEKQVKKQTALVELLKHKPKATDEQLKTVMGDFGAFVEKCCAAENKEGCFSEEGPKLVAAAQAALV
Chain of rat albumin (rat) (P02770 25-608 limits assumed): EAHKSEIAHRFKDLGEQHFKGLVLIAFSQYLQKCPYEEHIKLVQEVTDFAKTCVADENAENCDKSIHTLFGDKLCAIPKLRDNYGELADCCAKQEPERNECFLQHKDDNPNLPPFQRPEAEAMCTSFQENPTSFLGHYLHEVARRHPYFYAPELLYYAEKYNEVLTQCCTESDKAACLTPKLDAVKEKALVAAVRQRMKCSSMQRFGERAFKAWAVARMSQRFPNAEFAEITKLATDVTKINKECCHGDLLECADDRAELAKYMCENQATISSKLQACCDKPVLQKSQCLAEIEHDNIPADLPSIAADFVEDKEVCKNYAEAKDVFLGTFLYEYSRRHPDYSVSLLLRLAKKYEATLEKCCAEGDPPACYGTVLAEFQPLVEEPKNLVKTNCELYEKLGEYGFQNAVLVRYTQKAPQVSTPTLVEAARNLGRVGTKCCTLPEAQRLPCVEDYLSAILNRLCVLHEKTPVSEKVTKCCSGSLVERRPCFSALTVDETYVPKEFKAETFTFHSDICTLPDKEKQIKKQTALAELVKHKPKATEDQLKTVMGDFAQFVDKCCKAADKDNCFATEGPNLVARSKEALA
Chain of human α-glycoprotein (human) (P02763 19-201): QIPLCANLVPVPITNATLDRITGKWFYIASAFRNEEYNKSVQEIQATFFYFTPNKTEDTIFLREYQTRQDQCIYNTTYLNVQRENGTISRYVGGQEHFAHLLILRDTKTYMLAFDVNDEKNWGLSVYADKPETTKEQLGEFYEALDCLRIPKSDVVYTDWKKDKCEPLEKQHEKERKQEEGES
Chain of bovine albumin (bovine) (P02769 25-607 limits assumed): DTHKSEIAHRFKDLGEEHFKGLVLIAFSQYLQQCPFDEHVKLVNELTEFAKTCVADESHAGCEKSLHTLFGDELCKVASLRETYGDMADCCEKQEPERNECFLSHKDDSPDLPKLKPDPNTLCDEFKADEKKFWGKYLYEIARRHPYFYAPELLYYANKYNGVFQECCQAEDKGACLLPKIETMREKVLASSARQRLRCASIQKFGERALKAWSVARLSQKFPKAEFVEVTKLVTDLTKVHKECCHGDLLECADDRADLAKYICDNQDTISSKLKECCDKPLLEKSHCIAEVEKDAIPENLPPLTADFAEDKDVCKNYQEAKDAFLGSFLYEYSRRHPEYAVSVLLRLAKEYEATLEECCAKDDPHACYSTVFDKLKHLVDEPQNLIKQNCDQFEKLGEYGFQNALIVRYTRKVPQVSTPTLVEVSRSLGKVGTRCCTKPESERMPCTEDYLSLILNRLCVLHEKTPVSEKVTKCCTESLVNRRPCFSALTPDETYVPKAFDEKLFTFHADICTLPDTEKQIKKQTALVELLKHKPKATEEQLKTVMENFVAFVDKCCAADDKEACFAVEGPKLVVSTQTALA

As for Dalbavancin (peptide), the N in [1] came out at 0.82; in [4] it was 1.38; in assay [5] it was 0.9; in assay [6], 1.24; in assay [7] it was 0.86; in [8], 0.179. Also, in assay [2], the degree of binding in human serum estimated from MIC difference was 96%. Also, the degree of protein binding estimated from MIC difference in assay [3] was 99.6%. The N (moles of protein per dalbavancin) in assay [9], in assay [10], in assay [11] and in assay [12] was under 1 each time. Also, the percent bound in assay [13] is over 98%. In addition, the results for the Kd in assay [14] and in [15] were 3 µM and 10 µM, respectively.
Consider “Vancomycin hydrochloride (Sigma V-2002, fw 1485.7) (peptide)”, for which the N in assay [16] is 1.1; in [17], 0.91 and 0.97; in assay [18] it was 1.05.
